B1: p53 codon 248 O6-POB-G (dsDNA)
DNA 1: CATGAACCGGAGGCCCATC
DNA 2: GATGGGCCTCCGGTTCATG
modifications: O6-POB-dG at strand 1 position 9
B2: p53 codon 248 both MeC O6-POB-G (dsDNA)
DNA 1: CATGAACCGGAGGCCCATC
DNA 2: GATGGGCCTCCGGTTCATG
modifications: O6-POB-dG at strand 1 position 9; 5-methyl-C at strand 1 position 8 and strand 2 position 11
B3: p53 codon 248 O6-POB-G:MeC base pair (dsDNA)
DNA 1: CATGAACCGGAGGCCCATC
DNA 2: GATGGGCCTCCGGTTCATG
modifications: O6-POB-dG at strand 1 position 9; 5-methyl-C at strand 2 position 11
B4: p53 codon 158 5'-MeC O6-POB-G (dsDNA)
DNA 1: ACCCGCGTCCGCGCCATGGCC
DNA 2: GGCCATGGCGCGGACGCGGGT
modifications: O6-POB-dG at strand 1 position 11; 5-methyl-C at strand 1 position 10 (text; Table 4 marks lost)
B5: p53 codon 248 5'-MeC O6-POB-G (dsDNA)
DNA 1: CATGAACCGGAGGCCCATC
DNA 2: GATGGGCCTCCGGTTCATG
modifications: O6-POB-dG at strand 1 position 9; 5-methyl-C at strand 1 position 8

biological target: AGT (O6-alkylguanine-DNA alkyltransferase) C145A (Homo sapiens, UniProt P16455 1-207, C145A); experiment: EMSA
Sequence (P16455 whole entry C145A): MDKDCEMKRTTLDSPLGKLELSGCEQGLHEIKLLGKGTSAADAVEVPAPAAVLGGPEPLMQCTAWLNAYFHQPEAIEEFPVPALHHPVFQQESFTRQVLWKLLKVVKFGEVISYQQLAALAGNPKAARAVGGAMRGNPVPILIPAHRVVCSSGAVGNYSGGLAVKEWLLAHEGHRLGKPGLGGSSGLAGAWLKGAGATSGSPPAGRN

Binder | Kd [nM]
B1 | 2200
B2 | 1000 ± 100
B3 | 1800 ± 300
B4 | 4800 ± 500
B5 | 2000 ± 200
